# Measurements published in patent publication US20040265295.
# Columns and labels:
# [1] = tested on: His-PIPKIγ661 C-terminus, wild-type (439-661)
# [2] = tested on: His-PIPKIγ661 C-terminus (439-661) Tyr644/649 to Phe mutant
# [3] = tested on: His-PIPKIγ661 C-terminus (439-661) Tyr644 to Phe mutant
# [4] = tested on: His-PIPKIγ661 C-terminus (439-661) Tyr649 to Phe mutant
# His-PIPKIγ661 C-terminus (439-661) Tyr649 to Phe mutant, sequence (chain, as listed by the source mutant): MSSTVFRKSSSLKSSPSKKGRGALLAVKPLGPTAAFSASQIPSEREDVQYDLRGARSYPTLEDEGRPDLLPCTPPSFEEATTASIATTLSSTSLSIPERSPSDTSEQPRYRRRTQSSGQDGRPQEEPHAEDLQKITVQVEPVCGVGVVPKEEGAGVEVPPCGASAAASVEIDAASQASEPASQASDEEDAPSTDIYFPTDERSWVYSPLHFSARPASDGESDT
# His-PIPKIγ661 C-terminus (439-661) Tyr644/649 to Phe mutant, sequence (chain, as listed by the source mutant): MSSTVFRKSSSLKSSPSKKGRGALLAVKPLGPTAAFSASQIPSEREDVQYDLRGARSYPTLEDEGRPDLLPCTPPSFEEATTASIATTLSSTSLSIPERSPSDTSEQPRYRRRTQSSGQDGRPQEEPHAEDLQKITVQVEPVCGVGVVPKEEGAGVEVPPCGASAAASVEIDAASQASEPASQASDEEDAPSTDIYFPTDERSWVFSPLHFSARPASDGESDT
# His-PIPKIγ661 C-terminus (439-661) Tyr644 to Phe mutant, sequence (chain, as listed by the source mutant): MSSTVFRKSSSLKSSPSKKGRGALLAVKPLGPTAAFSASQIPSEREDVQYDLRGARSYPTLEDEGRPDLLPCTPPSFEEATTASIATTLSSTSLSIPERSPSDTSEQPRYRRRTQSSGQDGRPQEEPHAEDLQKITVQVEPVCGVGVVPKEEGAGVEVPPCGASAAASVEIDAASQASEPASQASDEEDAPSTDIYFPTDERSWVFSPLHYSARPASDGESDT
# His-PIPKIγ661 C-terminus, wild-type (439-661), sequence (chain, as listed by the source): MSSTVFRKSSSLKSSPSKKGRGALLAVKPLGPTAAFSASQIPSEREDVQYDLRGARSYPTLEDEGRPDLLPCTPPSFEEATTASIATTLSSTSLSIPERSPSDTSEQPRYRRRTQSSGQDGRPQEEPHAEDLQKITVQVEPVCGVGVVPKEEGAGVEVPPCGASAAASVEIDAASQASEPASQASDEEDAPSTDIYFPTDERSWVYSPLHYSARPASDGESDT
substance,measurement,setting,value
c-SrcTyr527Phe,"in vitro kinase assay, phosphorylation of the recombinant substrate",[1],c-Src directly phosphorylated recombinant PIPKIγ661 tail
same,"in vitro kinase assay, phosphorylation of the recombinant substrate",[2],not efficiently phosphorylated by c-Src in vitro compared with wild-type
same,"in vitro kinase assay, phosphorylation of the recombinant substrate",[3],not efficiently phosphorylated by c-Src in vitro compared with wild-type
same,"in vitro kinase assay, phosphorylation of the recombinant substrate",[4],PIPKIγTyr^649->Phe is efficiently phosphorylated by c-Src
